Here are results for one molecule from article doi:10.1101/2023.07.17.549284.

The target of this assay is T1, ACADVL (mouse (endogenous in heart and kidney)), P50544.
T1 chain: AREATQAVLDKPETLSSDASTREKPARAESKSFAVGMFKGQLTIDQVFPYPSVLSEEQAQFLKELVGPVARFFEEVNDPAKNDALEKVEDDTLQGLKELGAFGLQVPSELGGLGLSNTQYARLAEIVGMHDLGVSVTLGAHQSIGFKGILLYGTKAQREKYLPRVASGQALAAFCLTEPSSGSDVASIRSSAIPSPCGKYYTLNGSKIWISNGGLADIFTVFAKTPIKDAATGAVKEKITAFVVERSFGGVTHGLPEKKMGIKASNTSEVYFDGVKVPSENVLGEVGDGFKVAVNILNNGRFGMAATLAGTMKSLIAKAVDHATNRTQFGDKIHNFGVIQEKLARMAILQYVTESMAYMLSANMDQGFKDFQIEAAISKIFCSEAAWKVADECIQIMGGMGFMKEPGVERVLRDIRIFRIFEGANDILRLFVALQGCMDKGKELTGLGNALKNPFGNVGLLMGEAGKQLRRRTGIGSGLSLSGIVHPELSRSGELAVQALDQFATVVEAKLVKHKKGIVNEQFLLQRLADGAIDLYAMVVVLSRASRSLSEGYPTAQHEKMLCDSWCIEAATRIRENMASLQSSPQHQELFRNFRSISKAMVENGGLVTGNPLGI
The assay is described as follows: cryo-EM structure. The conditions noted are these: remark: other sources report otherwise.

B1: ACADVL, P50544 42-656 (natural protein)
chain: T1 chain
A word on the stoichiometry N: it is a count of units in the complex or per binding partner. B1 yielded a stoichiometry N of 2.
